In patent US20180044374A1:
Where “and” joins values, the source holds several entries; their conditions need not be identical. Equal values may be shown once.

Legend:
[1] = biological target: human polyclonal IgG (Gammanorm) (human); test: dynamic binding capacity; matrix I1, ligand 6.1 mg/ml
[2] = biological target: human polyclonal IgG (Gammanorm) (human); test: dynamic binding capacity; matrix A32, ligand 13.3 mg/ml
[3] = biological target: human polyclonal IgG (Gammanorm) (human); test: dynamic binding capacity; matrix A62a, ligand 9.7 mg/ml
[4] = biological target: human polyclonal IgG (Gammanorm) (human); test: dynamic binding capacity; matrix C2, ligand […]
[5] = biological target: human polyclonal IgG (Gammanorm) (human); test: dynamic binding capacity; matrix A39, ligand 7.0 mg/ml
[6] = biological target: human polyclonal IgG (Gammanorm) (human); test: dynamic binding capacity; matrix A39, ligand 10.5 mg/ml
[7] = biological target: human polyclonal IgG (Gammanorm) (human); test: dynamic binding capacity; matrix A41, ligand 13.0 mg/ml
[8] = biological target: human polyclonal IgG (Gammanorm) (human); test: dynamic binding capacity; matrix A63a, ligand 6.1 mg/ml
[9] = biological target: human polyclonal IgG (Gammanorm) (human); test: dynamic binding capacity; matrix A39, ligand 10.48 mg/ml
[10] = biological target: human polyclonal IgG (Gammanorm) (human); test: dynamic binding capacity; ligand 16 mg/ml, before 1 M NaOH
[11] = biological target: human polyclonal IgG (Gammanorm) (human); test: dynamic binding capacity; matrix A28, ligand 11.9 mg/ml
[12] = biological target: human polyclonal IgG (Gammanorm) (human); test: dynamic binding capacity; matrix A27, ligand […]
[13] = biological target: human polyclonal IgG (Gammanorm) (human); test: dynamic binding capacity; matrix A32, ligand […]
[14] = biological target: human polyclonal IgG (Gammanorm) (human); test: dynamic binding capacity; matrix A42, ligand 6.72 mg/ml
[15] = biological target: human polyclonal IgG (Gammanorm) (human); test: dynamic binding capacity; matrix A65a, ligand 13.6 mg/ml
[16] = biological target: human polyclonal IgG (Gammanorm) (human); test: dynamic binding capacity; matrix H40, ligand 9.1 mg/ml
[17] = biological target: human polyclonal IgG (Gammanorm) (human); test: dynamic binding capacity; matrix A38, ligand 7.5 mg/ml
[18] = biological target: human polyclonal IgG (Gammanorm) (human); test: dynamic binding capacity; matrix A65a, ligand 6.1 mg/ml
[19] = biological target: human polyclonal IgG (Gammanorm) (human); test: dynamic binding capacity; matrix A33, ligand 7.3 mg/ml
[20] = biological target: human polyclonal IgG (Gammanorm) (human); test: dynamic binding capacity; matrix A28, ligand 15.8 mg/ml
[21] = biological target: human polyclonal IgG (Gammanorm) (human); test: dynamic binding capacity; matrix A33, ligand 7.33 mg/ml
[22] = biological target: human polyclonal IgG (Gammanorm) (human); test: dynamic binding capacity; matrix A20, ligand 10.6 mg/ml
[23] = biological target: human polyclonal IgG (Gammanorm) (human); test: dynamic binding capacity; matrix A42, ligand […]
[24] = biological target: human polyclonal IgG (Gammanorm) (human); test: dynamic binding capacity; matrix A40, ligand 11.03 mg/ml
[25] = biological target: human polyclonal IgG (Gammanorm) (human); test: dynamic binding capacity; matrix A62a, ligand 6.6 mg/ml
[26] = biological target: human polyclonal IgG (Gammanorm) (human); test: dynamic binding capacity; matrix A39, ligand 6.96 mg/ml
[27] = biological target: human polyclonal IgG (Gammanorm) (human); test: dynamic binding capacity; matrix A65b, ligand 8.8 mg/ml
[28] = biological target: human polyclonal IgG (Gammanorm) (human); test: dynamic binding capacity; matrix A65b, ligand […]
[29] = biological target: human polyclonal IgG (Gammanorm) (human); test: dynamic binding capacity; matrix C1, ligand […]
[30] = biological target: human polyclonal IgG (Gammanorm) (human); test: dynamic binding capacity; matrix A20, ligand […]
[31] = biological target: human polyclonal IgG (Gammanorm) (human); test: dynamic binding capacity; matrix A33, ligand 9.4 mg/ml
[32] = biological target: human polyclonal IgG (Gammanorm) (human); test: dynamic binding capacity; matrix A29, ligand 11 mg/ml

Substance: Zvar(Q9A, N11E, Q40V, A42K, N43A, L44I)4 (designed binder)
- Qb10% 2.4 min [1]: 45 mg/mL
- Qb10% 6 min [1]: 51 mg/mL
- Qb10% 2.4 min [2]: 37 mg/mL
- Qb10% 6 min [2]: 66 mg/mL
- Qb10% 2.4 min [3]: 48 mg/mL
- Qb10% 6 min [3]: 60 mg/mL
- Qb10% 2.4 min [4]: 39 mg/mL
- Qb10% 6 min [4]: 46 mg/mL
- Qb10% 2.4 min [5]: 42 mg/mL
- Qb10% 6 min [5]: 55 mg/mL
- Qb10% 2.4 min [6]: 44 mg/mL
- Qb10% 6 min [6]: 65 mg/mL
- Qb10% 2.4 min [7]: 35 mg/mL
- Qb10% 6 min [7]: 62.2 mg/mL
- Qb10% 2.4 min [8]: 39 mg/mL
- Qb10% 6 min [8]: 44 mg/mL
- Qb10% 2.4 min [9]: 44.4 mg/mL
- Qb10% 6 min [9]: 64.8 mg/mL
- Qb10%, 6 min, before incubation [10]: 73 mg/mL
- Qb10% 2.4 min [11]: 39.9 mg/mL and 40 mg/mL
- Qb10% 6 min [11]: 63.8 mg/mL and 64 mg/mL
- Qb10% 2.4 min [12]: 24.8 mg/mL
- Qb10% 6 min [12]: 55.6 mg/mL
- Qb10% 2.4 min [13]: 40 mg/mL
- Qb10% 6 min [13]: 57 mg/mL
- Qb10% 2.4 min [14]: 33.6 mg/mL
- Qb10% 6 min [14]: 50 mg/mL
- Qb10% 2.4 min [15]: 52 mg/mL
- Qb10% 6 min [15]: 61 mg/mL
- Qb10% 2.4 min [16]: 52 mg/mL
- Qb10% 6 min [16]: 67 mg/mL
- Qb10% 2.4 min [17]: 44 mg/mL
- Qb10% 6 min [17]: 58 mg/mL
- Qb10% 2.4 min [18]: 40 mg/mL
- Qb10% 6 min [18]: 44 mg/mL
- Qb10% 2.4 min [19]: 49 mg/mL
- Qb10% 6 min [19]: 56 mg/mL
- Qb10% 2.4 min [20]: 37 mg/mL
- Qb10% 6 min [20]: 67 mg/mL
- Qb10% 2.4 min [21]: 48.7 mg/mL
- Qb10% 6 min [21]: 55.8 mg/mL
- Qb10% 2.4 min [22]: 50.7 mg/mL and 51 mg/mL
- Qb10% 6 min [22]: 70.1 mg/mL and 70 mg/mL
- Qb10% 2.4 min [23]: 32.2 mg/mL
- Qb10% 6 min [23]: 57.8 mg/mL
- Qb10% 2.4 min [24]: 55 mg/mL
- Qb10% 6 min [24]: 73.8 mg/mL
- Qb10% 2.4 min [25]: 41 mg/mL
- Qb10% 6 min [25]: 46 mg/mL
- Qb10% 2.4 min [26]: 41.9 mg/mL
- Qb10% 6 min [26]: 54.7 mg/mL
- Qb10% 2.4 min [27]: 49 mg/mL
- Qb10% 6 min [27]: 56 mg/mL
- Qb10% 2.4 min [28]: 42 mg/mL
- Qb10% 6 min [28]: 46 mg/mL
- Qb10% 2.4 min [29]: 38 mg/mL
- Qb10% 6 min [29]: 47 mg/mL
- Qb10% 2.4 min [30]: 49 mg/mL
- Qb10% 6 min [30]: 67 mg/mL
- Qb10% 2.4 min [31]: 51 mg/mL
- Qb10% 6 min [31]: 58 mg/mL
- Qb10% 2.4 min [32]: 34.9 mg/mL
- Qb10% 6 min [32]: 64.7 mg/mL
